Measured values as given in PMC2199005.

Assays:
[1] = target: recombinant streptococcal pyrogenic exotoxin C (SPE-C) (Streptococcus pyogenes); test: SEC
[2] = target: recombinant streptococcal pyrogenic exotoxin C (SPE-C) (Streptococcus pyogenes); test: nondenaturing SDS-PAGE

For “recombinant streptococcal pyrogenic exotoxin C (SPE-C) (natural protein)”, the percent dissociated to the monomer form [1] was 50%, the stoichiometry N [1] was 2 and the percent of SPE-C in dimer form [2] was over 60%.
